Data taken from US20240409645A1.

T1: mouse IL-2Rβ (mouse) (UniProt P16297)
T1 sequence (looked up): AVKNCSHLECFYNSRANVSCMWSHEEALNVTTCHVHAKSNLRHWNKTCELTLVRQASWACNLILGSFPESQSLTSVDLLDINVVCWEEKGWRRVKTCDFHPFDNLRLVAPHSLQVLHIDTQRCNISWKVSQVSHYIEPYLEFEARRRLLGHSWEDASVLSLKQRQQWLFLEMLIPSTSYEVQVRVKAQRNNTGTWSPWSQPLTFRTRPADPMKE

B1: FJ1427 P035MP02B12 (VHH)
VHH: QVQLVESGGGLVQAGGSLRLSCAASGRADSNAIMAWFRQAPGKEREFIVAVTYSGMPTYQDDSVQGRFTASRDNAKNTVYLQMNSLKPEDTAVYYCAARMYSASTYYGDYDYWGQGTQVTVSS
B2: FJ1427_P035MP02F11 (VHH)
VHH: EVQLVESGGGLVQAGGSLRLSCAASGRDFSSYAMGWFRQAPGKEREFVVAITWTKRSTDFPDSVKGRFTISRDNAKNTVYLDMNSLKPEDTAVYYCASARGLPVTPLGDIIYWGEGTLVTVSS
B3: FJ1427_P035MP02G11 (VHH)
VHH: QLQLVESGGGLVQAGGSLRLSCAASGRDFSSYAMGWFRQAPGKEREFVVAITWTKRSTDFPDSVKGRFTISRDNAKNTVYLDMNSLKPEDTAVYYCASARGLPVTPLGDIIYWGEGTLVTVSS
B4: FJ1427 P035MP03B01 (VHH)
VHH: QVQLVESGGGLVQAGGSLRLSCAASGFTFSNYAMSWVRQAPGKGLEWVSSITGFGRGTDYADSVKGRFTISRDNAKNTLYLQMNSLKPEDTAVYYCARYSSSTYYPPTPARGTDYRGQGTQVTVSS
B5: FJ1427 P035MP03D01 (VHH)
VHH: QVQLVESGGGLVQPGGSLGLSCAASGFTFDNYAMSWVRQAPGKGLEWVSSITGAGRGTHYADSVKGRFTISRDNAKNTLYLQMNSLKPEDTAVYYCAKYSSSTYYPPTPARGTDYRGPGTQVTVSS
B6: FJ1427_P035MP02E12 (VHH)
VHH: QVQLQESGGGLVQAGGSMRLSCAASGRTFSNYVIAWFRQAPGKEREFVGAITQTGRGTFYASSVEGRFTLSRLNDQSTVYLQMNSLNPEDTGVYYCSAPRSGRAGTRNQMDYEYWGQGTQVTVSS
B7: FJ1427_P035MP03H01 (VHH)
VHH: QVQLVESGGGSVQTGGSLRLSCVVSGSHFISDVMGWYRQVPGKQRELVADMADGGSAKYADSVKGRFTILRDSVKNTVTLQMSSLNPEDTGVYYCKAGLWITGRHSDYWGQGTQVTVTS
B8: FJ1427_P035MP03F01 (VHH)
VHH: QVQLVESGGGLVQVGGSLRVSCAASGRTSGDRNMGWFRQAPGKEREFVGIITWSSGSTVYADSVKGRFTISRDNAKNTVYLDMSSLKPEDTAVYYCAADYYPYSGSWNIMDYWGKGTLVTVSS
B9: FJ1427_P035MP02C12 (VHH)
VHH: EVQLVESGGGSVQAGGSLRLSCAASGRTFSDYTMGWFRQAPGKEREFVVAITGTGHTTDMPDSVEGRFTISRDNAKNTIYLDMKNLKPGDTAVYYCASARGLPVTPLGDIIYWGEGTLVTVSS
B10: FJ1427 P035MP02A12 (VHH)
VHH: QVQLQESGGGLVQAGGSLRLSCAVSGRSFRNYVMGWFRQAPGREREIVAGITQFTSTTYYDDSVKGRFTISRDNAKNTVYLQMNSLKPEDTALYYCAADRSIKMTADWAYWGQGTQVTVSS
B11: FJ1427 P035MP03D02 (VHH)
VHH: QVQLQESGGGLVQTGGSLRLSCAVSGSRFISDVMGWYRQVPGKQRELVADMADGGSAKYADSVKGRFSILRDSVKNTVYLQMSSLKPEDTGIYYCKAGLWLAGRHSDYWGQGTQVTVSS
B12: FJ1427_P035MP02H11 (VHH)
VHH: EVQLVESGGGLVQAGGSLRLSCAASGRTFSTTEMGWFRQAPGKEREFVAAITWTGRGTMYAESVEGRFTISRENAKNMVYLQMNSLKPEDTAIYYCAAARRGRAAVRSEGGYDFWGQGTQVAVSS
B13: FJ1427 P035MP02F12 (VHH)
VHH: QLQLVESGGGLVQTGTSLRLSCAASGHTSRINAMGWFRQFPGKEREFVAAISRNGGSTVYVDSVKGRFTISRDNAKSTVYLQMNSLKPEDTAVYYCTATDAVGWTTRWMTADFGFWGQGTQVTVSS
B14: FJ1427_P035MP02D12 (VHH)
VHH: QVQLVESGGGLVQAGGSLTLSCAASGGAFSSDAKAWFRQAPGKEREFVAAITWAGRGTDYADSVKGRFTITRDNAKATVHLQMNSLKPEDTAVYYCALNPRGVIGPAFRNSNHYTYWGQGTQVTVSS
B15: FJ1427_P035MP03B02 (VHH)
VHH: EVQLVESGGGLVQVGDSLRLSCAASGRTVGSANMGWFRQAPGKEREFVAVITWSTGSTVYADSVKGRFTISRDNAKNTVYLDMSSLKPDDTAVYYCAADVYPYSGNLNIMDYWGKGTLVTVSS
B16: FJ1427 P035MP03C02 (VHH)
VHH: QVQLVESGGGLVQVGDSLRLSCAASGRTVGSANMGWFRQAPGKEREFVAVITWSTGSTVYADSVKGRFTISRDNAKNTVYLDMSSLKPEDTAVYYCAADVYPYSGNLNIMDYWGKGTLVTVSS
B17: FJ1427 P035MP03E01 (VHH)
VHH: QVQLVESGGGLVQAGGSLRLSCAASGGTFSSYAMGWFRQAPGKEREFVAATTRGGGRTMYAVSTEGRFTCSRDNAKNTVYLLMNSLKPEDTAVYYCAAMTSYYSGTYYPDSSDFDIWGQGTQVTVSS
B18: FJ1427_P035MP03G01 (VHH)
VHH: EVQLVESGGGLVQAGGSLRLSCAASGGTFSSYAMGWFRQAPGKEREFVAATTRGGGRTMYAVSTEGRFTCSRDNAKNTVYLLMNRVKPEDTAVYYCAARTSYYSGTYYPASSDFDIWGQGTQVTVSS
B19: FJ1427_P035MP03A02 (VHH)
VHH: QVQLVESGGGLVQAGGSLRLSCAASGGTFSSYAMGWFRQAPGKEREFVAATTRGGGRTMYAVSTEGRFTCSRDNAENTVYLQMNSLKPEDTAIYYCAAMTSYYSGTYYPDSSDFDIWGQGTQVTVSS
B20: FJ1427_P035MP02H01 (VHH)
VHH: QVQLVESGGGLVQPGGSLGLSCAASGFTFDNYAMSWVRQAPGKGLEWVSSITGAGRGTHYADSVKGRFTISRDNAKNTLYLQMNSLKPEDTAVYYCAKYSSSTYYPPTPARGTDYRGPGTQVTVSS
B21: FJ1427_P035MP02A02 (VHH)
VHH: QVQLVESGGGLVQPGGSLRLSCAASGFTFDNYAMTWVRQAPGKGLEWVSSITGAGRGTHYADSVKGRFTISRDNAKNTLYLQVNSLKPEDTAVYYCARYSSSTYYPTTPVRGTDYRGQGTQVTVSS
B22: FJ1427 P035MP02D02 (VHH)
VHH: QVQLVESGGGLVQVGGSLSVSCAASGRSFDSITMAYFRQAPGNEREFIAGINFSGSRTAYGDSVKGRFTISRDNAKNTVFLQMNSLNPEDTAVYYCAASPRGFYGPGHALYDYWGQGTQVTVSS
B23: FJ1427_P035MP02A03 (VHH)
VHH: QVQLVESGGGLVQPGGSLRLSCAASGFTFSNYAMSWVRQAPGKGLEWVSSITGAGRGTYYAESVKGRFTISRDNDKNTLYLQMNSLKPEDTAVYYCAKYDSSTFYPPTPARGIADRGQGTRVTVSS
B24: FJ1427_P035MP02B02 (VHH)
VHH: EVQLVESGGTLVQTGGSLRLSCVVSGSHFISDVMGWYRQVPGKQRELVADMADGGSAKYGDSVKGRFTIVRDSVKNTVYLQMSSLNPEDTGVYYCKAGLWIKGRHSDYWGQGTQVTVTS
B25: FJ1427 P035MP02G02 (VHH)
VHH: QVQLVESGGGLVQPGGSLRLSCAASGSHFISDVMGWYRQVPGKQRELVADMADGGSVKYGDSVKGRFTILRDSVKNTVTLQMSSLNPEDTGVYYCKAGLWITGRHFDYWGQGIQVTVTS
B26: FJ1427_P035MP02G01 (VHH)
VHH: QVQLVESGGGLVQTGGSLRLSCAVSGSRFISDVMGWYRQVPGKQRELVADMADGGSAKYADSVKGRFSILRDSAKNTVYLQMSSLKPEDTGIYYCKAGLWIAGRHSDYWGQGTQVTVSS
B27: FJ1427_P035MP02F01 (VHH)
VHH: EVQLVESGGGLVQTGGSLRLSCAVSGSRFISDVMGWYRQVPGKQRELVADMADGGSAKYADSVKGRFSILRDSVKNTVYLQMSSLKPEDTGIYYCKAGLWIAGRHSDYWGQGTQVTVSS
B28: FJ1427_P035MP02C02 (VHH)
VHH: QVQLVESGGGLVQPGGSLRLSCAASGSRFVSDFMGWYRQVPGKQRELVADMADGGSARYGDSVKGRFTILRDNMNSTAFLQMSSLKPEDTGVYYCKAGLWIAGRHFDYWGQGTQVTVSS
B29: FJ1427_P035MP02B03 (VHH)
VHH: QVQLVESGGGLVQTGGSLRLSCAASGSRFVSDFMGWYRQVPGKQRELVADMADGGSARYGDSVKGRFTILRDSGNSTAYLQMSSLKPEDTGVYYCKAGLWIAGRHFDYWGQGTQVTVSS
B30: FJ1427 P035MP02F02 (VHH)
VHH: EVQLVESGGGLVQAGGSLRLACALSGDVFVRYTMAWFRQAPGKEREFVASVTDSGRTTDYVASVQGRFTVSRDNNKNTVYLQMNSLKPEDTAVYYCAANTDYFQIRSLDRNTWGQGTQVTVSS
B31: FJ1427_P035MP02D03 (VHH)
VHH: QVQLVESGGGLVQAGGPLRLSCAASGGTFSSYAMGWFRQAPGKEREFVAATTRGGGRTMYAVSTEGRFTCSRDNAKNTVYLLMNSLKPEDTAVYYCAAMTSYYSGTYYPDSSDFDIWGQGTQVTVSS
B32: FJ1427 P035MP02E02 (VHH)
VHH: EVQLVESGGGLVQTGGSLRLSCAASGSQFINDVMGWYRQVPGKQRELVADMDDTGSTKYADSVKGRFTILRDSVKNTAYLQMSNLKPEDTGVYYCKAGLWIKGRHSDYWGQGTQVTVSS

What follows are binders tested against T1, mouse IL-2Rβ (mouse) (assay: P.E. binding ELISA on coated protein).
With B1 the P.E. binding ELISA OD was 0.048 OD450 nm. For B2, the P.E. binding ELISA OD was 0.047 OD450 nm. Work on B3 yielded a P.E. binding ELISA OD of 0.049 OD450 nm. Binder B4 has a P.E. binding ELISA OD of 0.05 OD450 nm. Work on B5 yielded a P.E. binding ELISA OD of 0.048 OD450 nm. Binder B6 has a P.E. binding ELISA OD of 0.048 OD450 nm. B7 showed a P.E. binding ELISA OD of 0.051 OD450 nm. In the case of B8, the P.E. binding ELISA OD is reported as 0.049 OD450 nm. B9 gave a P.E. binding ELISA OD of 0.047 OD450 nm. In the case of B10, the P.E. binding ELISA OD is reported as 0.047 OD450 nm. Work on B11 yielded a P.E. binding ELISA OD of 0.048 OD450 nm. For B12, the P.E. binding ELISA OD was 0.049 OD450 nm. With B13 the P.E. binding ELISA OD was 0.048 OD450 nm. In the case of B14, the P.E. binding ELISA OD is reported as 0.046 OD450 nm. B15 was tested, and the P.E. binding ELISA OD was 0.068 OD450 nm. In the case of B16, the P.E. binding ELISA OD is reported as 0.048 OD450 nm. For B17, the P.E. binding ELISA OD was 0.049 OD450 nm. With B18 the P.E. binding ELISA OD was 0.049 OD450 nm. In the case of B19, the P.E. binding ELISA OD is reported as 0.052 OD450 nm.

Each binder was assayed against T1, mouse IL-2Rβ (mouse) (assay: P.E. ELISA, coated protein).
With B20 the P.E. binding ELISA OD was 0.051 OD450 nm. Work on B21 yielded a P.E. binding ELISA OD of 0.049 OD450 nm. With B22 the P.E. binding ELISA OD was 0.048 OD450 nm. B23 gave a P.E. binding ELISA OD of 0.048 OD450 nm. Work on B24 yielded a P.E. binding ELISA OD of 0.048 OD450 nm. B25 gave a P.E. binding ELISA OD of 0.049 OD450 nm. For B26, the P.E. binding ELISA OD was 0.049 OD450 nm. B27 gave a P.E. binding ELISA OD of 0.048 OD450 nm. With B28 the P.E. binding ELISA OD was 0.048 OD450 nm. Work on B29 yielded a P.E. binding ELISA OD of 0.048 OD450 nm. Binder B30 has a P.E. binding ELISA OD of 0.052 OD450 nm. In the case of B31, the P.E. binding ELISA OD is reported as 0.048 OD450 nm. For B32, the P.E. binding ELISA OD was 0.049 OD450 nm.
